In experiment [1] the target is T1, full-length human Nectin4 with C-terminal flag and Myc tags on CHO cells (human, UniProt Q96NY8 32-510).
T1 construct: whole, on cells; also called Nectin4/CHO; CHO/Nectin4; not shown: C-terminal flag and Myc tags of pCMV6-Entry vector
T1 sequence (looked up): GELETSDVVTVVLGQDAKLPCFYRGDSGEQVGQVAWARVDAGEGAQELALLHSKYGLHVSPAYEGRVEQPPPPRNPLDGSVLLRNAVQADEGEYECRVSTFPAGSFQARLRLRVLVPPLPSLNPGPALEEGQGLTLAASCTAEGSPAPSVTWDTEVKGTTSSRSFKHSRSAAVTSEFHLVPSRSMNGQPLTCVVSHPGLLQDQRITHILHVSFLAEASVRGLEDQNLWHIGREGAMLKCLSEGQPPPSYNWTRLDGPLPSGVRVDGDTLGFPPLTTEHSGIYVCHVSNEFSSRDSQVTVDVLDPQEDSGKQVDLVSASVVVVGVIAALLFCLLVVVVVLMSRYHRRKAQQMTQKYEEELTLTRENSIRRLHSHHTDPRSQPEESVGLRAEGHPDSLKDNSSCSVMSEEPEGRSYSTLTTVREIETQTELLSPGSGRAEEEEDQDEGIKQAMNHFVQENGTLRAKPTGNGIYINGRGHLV
Description: flow cytometry, scFv on Nectin4/CHO cells. Here is the method: To determine whether anti-Nectin4 scFvs bind to Nectin4 expressing cells, 200 nM of purified anti-Nectin4 scFv antibodies were diluted in full medium and incubated with Nectin4/CHO and CHO cells in 96 wells plate on ice for 1 hour. Cells were spun down at 1200 rpm for 5 minutes at 4° C. to remove primary antibodies. Cells were then washed once with 200 uL of full medium per well. Samples were detected with premixed anti-His Biotin Streptavidin Alexa fluor 647 by adding 100 uL of diluted secondary antibody and incubated at 4° C. for 30 minutes in the dark. Samples were spun down at 1200 rpm for 5 minutes at 4° C. and washed twice with 200 uL of 1×PBS per well. Reconstituted samples in 200 uL of 1×PBS and read on Attune NxT cytometer. Analysis was done by Attune NxT software plotting the overlay histogram of anti-Nectin4 scFvs binding onto both negative and target cell lines.
For orientation: A flow cytometer gives signals particle by particle.

The target of experiment [2] is T2, human Nectin4-Fc fusion protein (human, UniProt Q96NY8 32-349).
T2 construct: Recombinant protein coated in the scFv ELISA and captured on the anti-hFc chip in the scFv SPR; also called recombinant Nectin4-Fc fusion protein; human Nectin4-Fc protein; not shown: Fc part
T2 sequence (looked up): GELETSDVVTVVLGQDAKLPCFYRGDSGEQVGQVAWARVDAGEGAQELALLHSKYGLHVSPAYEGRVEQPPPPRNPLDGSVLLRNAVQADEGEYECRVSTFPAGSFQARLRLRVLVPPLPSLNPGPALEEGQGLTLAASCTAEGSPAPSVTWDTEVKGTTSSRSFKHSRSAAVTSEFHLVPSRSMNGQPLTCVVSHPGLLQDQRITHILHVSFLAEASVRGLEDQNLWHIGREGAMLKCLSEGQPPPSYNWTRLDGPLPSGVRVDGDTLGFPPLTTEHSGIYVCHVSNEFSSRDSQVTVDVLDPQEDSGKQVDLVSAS
Briefly: ELISA, coated human Nectin4-Fc, scFv titrated, anti-Flag HRP. Here is the method:
An ELISA assay was developed to determine the EC₅₀ of anti-Nectin4 antibodies. Briefly, 384 well plate was immobilized with human Nectin4-Fc at final concentration of 2 ug/mL in 1×PBS in total volume of 25 uL per well. The plate was incubated overnight at 4° C. followed by blocking with 80 uL of superblock per well for 1 hour. Purified anti-Nectin4 scFvs were 2-fold serial titrated from 200 nM. 25 uL was added to human Nectin4 immobilized wells and incubated for 1 hour with shaking. The Nectin4 binding was detected by adding 25 uL of anti-Flag HRP diluted at 1:5000 in 1×PBST. In between each step, the plate was washed 3 times with 1×PBST in a plate washer. The plate was then developed with 20 uL of TMB substrate for 5 mins and stopped by adding 20 uL of 2 N sulfuric acid. The plate was read at OD450 nm Biotek plate reader and then plotted in Prism 8.1 software.

Experiment [3] has as its target T2, human Nectin4-Fc fusion protein. Description: SPR Biacore T200, Nectin4-Fc captured on anti-hFc chip, scFv injected. The method, then:
Kinetic analysis of anti-Nectin4 scFvs has been assessed by SPR technology with Biacore T200. The assay was run with Biacore T200 control software version 2.0. Anti-human Fc antibody was immobilized on flow cell 1 and 2 of CM5 sensor chip. For each cycle, 1 ug/mL of human Nectin4-Fc protein was captured for 60 seconds at flow rate of 10 ul/min on flow cell 2 in 1×HBSP buffer on anti-hFc sensor chip. 2-fold serial diluted HIS tag purified anti-Nectin4 scFv was injected onto both reference flow cell 1 and Nectin4-Fc captured flow cell 2 for 150 seconds at flow rate of 30 ul/min followed by wash for 300 seconds. The flow cells were then regenerated with Antibody regeneration buffer (GE) for 30 seconds at flow rate of 30 ul/mins. 8 concentration points from 300-0 nM was assayed per anti-Nectin4 scFv in a 96 well plate. The kinetics of scFvs binding to Nectin4 protein was analyzed with Biacore T200 evaluation software version 3.0. The specific binding response unit was derived from subtraction of binding to reference flow cell 1 from Nectin4 captured flow cell 2.
A general note: In SPR one partner is held on a chip, and binding of the other changes the refractive index at the surface.

Where only a bound is given, the exact number is not on record here.

By EC50 is commonly meant the concentration giving half of the maximal effect. Lower therefore signals a more potent agent. Broadly, the Kd is the equilibrium constant for the complex coming apart. One may read the koff as the first-order rate constant of dissociation. What is called kon is the second-order rate constant of association.

B1: 2021EP032-E06 scFv (scFv, V domains shown)
VH: QVQLVESGAEVKKPGASVKVSCKASGYTFTGYYMHWVRQAPGQGLEWMGRINPNSGGTNYAQKFQGRFTISRDNSKTTLFLQMNSLRAEDTAVYYCAKADYQWVGAIFRLNAFDIWGQGTMVTVSS
VL: VIWMTQSPSSLSASVGDRVTITCRASQGISNYLAWYQQKPGKVPKLLIYAASTLQSGVPSRFSGSGSGTDFTLTISSLQPEDVATYYCQKYNSAPYTFGQGTKLEIK
Regarding B1, the EC50 was less than 0.001 nM in experiment [1] and 0.412 nM in experiment [2].

B2: 2021EP023-D06 scFv (scFv, V domains shown)
VH: QVQLVESGAEVKKPGSSVKVSCKASGGTFSSYAISWVRQAPGQGLEWMGGIIPIFGTANYAQKFQGRVTITADESTSTAYMELSSLRSEDTAVYYCARSRPVRGAYYWGQGTLVTVSS
VL: DIQMTQSPSSLSASVGDRVTITCRASQIVNSNYLNWYQQKPGKAPNLLIYGVSNLQVGVPSRFSGSGSGTDFTLSISSLQVEDSATYYCQQSYTTPRYSFGQGTKLEIRR
notes: Purified scFv with C-terminal flag and 6xHis tag
Consider B2, for which, in experiment [3], the Kd was 0.407 nM, the koff was found to be 0.000195 s⁻¹ and the kon was 480000 M⁻¹ s⁻¹.

B3: 2021EP032-D10 scFv (scFv, V domains shown)
VH: EVQLVESGAEVKKPGSSVKVSCKASGGTFSSYAISWVRQAPGQGLEWMGGIIPIFGTANYAQKFQGRVAITADESTSTAYMELSSLRSEDTAVYYCARDLAIVYGSGSYYNHHPRIDYYYYGMDVWGQGTTVTVSS
VL: QSVLTQPRSVSGSPGQSVTISCAGTSSDIGAYNYVSWYQQHPGKAPTLMINDVSKRPSGVPDRFSGSKSGNTASLTISGLQAEDEGDYYCFSYAGSYTLVFGGGTQLTVL
For the molecule B3, the results for the EC50 in experiment [1] and in experiment [2] were 0.29 nM and 8.76 nM, respectively.

B4: 2020EP034-E01 scFv (scFv, V domains shown)
VH: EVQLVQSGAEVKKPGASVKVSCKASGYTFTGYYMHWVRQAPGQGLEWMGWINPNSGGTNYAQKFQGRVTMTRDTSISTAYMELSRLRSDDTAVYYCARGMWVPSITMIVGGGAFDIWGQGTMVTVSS
VL: DVVMTQSPLSLPVTPGEPASMSCRSSESLLHRNGFNYLDWYVQRPGQSPKLLIYMGSYRASGVPDRFSGRGSGTDFALKISRVEAEDVGVYYCMQALQSPPLYTFGPGTKLEIK
Consider B4, for which the EC50 in experiment [1] was greater than 50 nM. In experiment [3], this molecule showed a Kd of 10.9 nM, a koff of 0.000406 s⁻¹ and a kon of 37000 M⁻¹ s⁻¹.

B5: 2020EP034-B09 scFv (scFv, V domains shown)
VH: EVQLVQSGAEVKKPGASVKVSCKASGYTFTGYYMHWVRQAPGQGLEWMGRINPNSGGTNYAQKFQGRVTMTRDTSISTAYMELSGLRSDDTAVYFCARVTYNIGWYIDYWGQGTLVTVSS
VL: QAVVTQPPSVSVAPGKTATITCGGNNIGSKGVHWYQQKPGQAPVLVIYYDTDRPSGIPERLSGSNSGNTATLTISRVEAGDEADYYCQVWDSSSDHPVFGGGTKLTVL
B5 had an EC50 in experiment [1] of 0.36 nM. Also, in experiment [3], the dissociation constant (Kd) was 1.47 nM, the koff is 0.00018 s⁻¹ and the kon was determined as 122000 M⁻¹ s⁻¹. The molecule also returned an EC50 in experiment [2] of 5.07 nM.

B6: 2021EP030-F02 scFv (scFv, V domains shown)
VH: QVQLQESGPGLVKPSETLSLTCTVSGGSISSSSYYWGWIRQPPGKGLEWIGSIYYSGSTYYNPSLKSRVTISVDTSKNQFSLKLSSVTAADTAVYYCARQANQVVPAAIPWAKPGGTPPNWFDPWGQGTLVTVSS
VL: QLVLTQPPSVSVAPGETARITCGGNNIGSKSVHWYQQKPGQAPVLVIYYDSARPSGIPERVSGSNSGNTATLTISRVEAGDEADYYCQVWDSSSDHPRVFGTGTKLTVL
With B6, the EC50 in experiment [1] stood at 0.194 nM. In experiment [3], this molecule had a Kd of 1.85 nM, a koff of 0.000215 s⁻¹ and a kon of 116000 M⁻¹ s⁻¹. The molecule further had an EC50 in experiment [2] of 2.97 nM.

B7: 2021EP030-C11 scFv (scFv, V domains shown)
VH: QMQLVQSKPEVKKPGTSVKVSCKASGFTFTSSAVQWVRQARGQRLEWIGWIVVGSGNTNYAQKFQERVTITRDMSTSTAYMELSSLRSEDTAVYYCAADGDYDIEGALDYWGQGTLVTVSS
VL: EIVLTQSPAILSLSPGERATLSCRASQSVSSYLAWYQQKPGQAPRLLIYDASNRATGIPARFSGSGSGTDFTLTISSLEPEDFAVYYCQQRSNWITFGGGTKVEIK
B7: the EC50 in experiment [1] turned out to be 13 nM. In experiment [3], this molecule displayed a Kd of 55.5 nM, an off-rate constant (koff) of 0.000262 s⁻¹ and an association rate constant (kon) of 4710 M⁻¹ s⁻¹. This molecule also registered an EC50 in experiment [2] of 291 nM.

B8: 2020EP47-F02 scFv (scFv, V domains shown)
VH: QVQLQQWGAGLLKPSETLSLTCAVYGGSFSGYYWSWIRQPPGKGLEWIGEINHSGSTNYNPSLKSRVTISVDTSKNQFSLKLSSVTAADTAVYYCARGWYLGFDYWGQGTLVTVSS
VL: QSVLTQPRSVSGSPGQSVTISCTGTSRDVGGYDYVSWYQQYPGKAPKLMISGVSERPSGVPDRFTGSRSANTASLTISGLQTDDEANYYCCSYAGSFTWVFGDGTKLTVL
notes: also called EP047-F02
Regarding B8, the EC50 in experiment [1] was 4.51 nM.

B9: 2021EP029-C04 scFv (scFv, V domains shown)
VH: QLQLQQSGPGLVKPSQTLSLTCAISGDSVSSNRAAWSWIRQSPSRGLEWLGRTYYRSKWYNDYAVSVESRIIINPDTSKNQFSLQLNPVTPEDTAVYYCARGSFESTWLWGQGTLVTVSS
VL: QAVVTQPHSVSESPGKTVTISCTRSGGSIANNYVHWYQQRPGSFPTALIYQDNQRRSGVPDRFSGSIDSSSNSASLTISGLKTEDEAEYYCQSFDNNNVVFGGGTQLTVL
Consider B9, for which the EC50 in experiment [1] came to 0.001 nM; in experiment [2], 0.857 nM.

B10: 2021EP030-B10 scFv (scFv, V domains shown)
VH: QVQLVESGGDLVNPGRSLRLACTGAGFTFGDYAVSWFRQAPGKGLEWVGFIESKPYGETREYAASVRGRFTISRDDSKGIAYLQMNGLKTEDTGVYYCSSVVAWVAYWGQGTLVTVSS
VL: AIQLTQSPSSLSASIGDRVTITCRASQSVTTYLNWYHQKPGKAPTFLIYGTSALQSGVPSRFSGSGSGTDFTLTISSLQPEDFGIYYCQQSYSLPPTFGGGTNVQIR
Molecule B10 had a concentration for a half-maximal effect (EC50) in experiment [1] of 24.2 nM.

(Values after US20240368275A1 (ELPIS BIOPHARMACEUTICALS, published 2024).)
